Experiment in all cases: Kd (EC50 corrected by depletion factor)
The target in one series is T1, RBM7 (UniProt Q9Y580).
T1 sequence: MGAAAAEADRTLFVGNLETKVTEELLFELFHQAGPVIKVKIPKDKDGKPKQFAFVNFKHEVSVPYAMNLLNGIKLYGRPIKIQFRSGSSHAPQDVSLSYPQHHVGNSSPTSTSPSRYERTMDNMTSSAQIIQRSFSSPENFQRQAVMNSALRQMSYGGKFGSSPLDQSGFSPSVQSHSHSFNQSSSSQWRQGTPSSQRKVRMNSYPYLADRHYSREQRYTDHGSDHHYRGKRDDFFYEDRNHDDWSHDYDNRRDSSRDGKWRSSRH
The essentials:
(§1)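 Free RNA oligos (0 nM to 30 μM) were pre-incubated with HEK293-FT lysate (2.5 mg protein/well) for 1 h at 4°C, followed by 30 min at 4°C with the same 5′-amino-C6 oligos coupled to NHS-Sepharose beads. Bound proteins were quantified by label-free LC-MS/MS and normalised to the control. EC50 was derived from a four-parameter log-logistic fit, and Kd was obtained by multiplying EC50 by a protein-dependent depletion factor.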

The target of another series is HNRNPAB (UniProt Q99729). The procedure, abridged:
as §1

The target of the next series is T2, ISY1 (UniProt Q9ULR0).
T2 sequence: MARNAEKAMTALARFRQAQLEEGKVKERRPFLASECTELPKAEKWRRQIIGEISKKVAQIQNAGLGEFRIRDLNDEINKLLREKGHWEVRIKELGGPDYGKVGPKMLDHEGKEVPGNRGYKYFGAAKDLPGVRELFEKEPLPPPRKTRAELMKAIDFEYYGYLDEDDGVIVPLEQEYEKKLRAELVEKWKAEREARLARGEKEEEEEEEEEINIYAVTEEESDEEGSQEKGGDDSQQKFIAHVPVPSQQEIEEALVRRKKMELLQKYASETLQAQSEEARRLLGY
The essentials: as §1

The next series deals with T3, LSM4 (UniProt Q9Y4Z0).
T3 sequence: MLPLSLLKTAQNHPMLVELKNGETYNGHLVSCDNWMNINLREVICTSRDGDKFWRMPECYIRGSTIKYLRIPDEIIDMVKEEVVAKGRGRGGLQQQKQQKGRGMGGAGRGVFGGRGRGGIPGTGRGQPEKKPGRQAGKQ
The essentials: as §1

The target of a further series is T4, WDR33 (UniProt Q9C0J8).
T4 sequence: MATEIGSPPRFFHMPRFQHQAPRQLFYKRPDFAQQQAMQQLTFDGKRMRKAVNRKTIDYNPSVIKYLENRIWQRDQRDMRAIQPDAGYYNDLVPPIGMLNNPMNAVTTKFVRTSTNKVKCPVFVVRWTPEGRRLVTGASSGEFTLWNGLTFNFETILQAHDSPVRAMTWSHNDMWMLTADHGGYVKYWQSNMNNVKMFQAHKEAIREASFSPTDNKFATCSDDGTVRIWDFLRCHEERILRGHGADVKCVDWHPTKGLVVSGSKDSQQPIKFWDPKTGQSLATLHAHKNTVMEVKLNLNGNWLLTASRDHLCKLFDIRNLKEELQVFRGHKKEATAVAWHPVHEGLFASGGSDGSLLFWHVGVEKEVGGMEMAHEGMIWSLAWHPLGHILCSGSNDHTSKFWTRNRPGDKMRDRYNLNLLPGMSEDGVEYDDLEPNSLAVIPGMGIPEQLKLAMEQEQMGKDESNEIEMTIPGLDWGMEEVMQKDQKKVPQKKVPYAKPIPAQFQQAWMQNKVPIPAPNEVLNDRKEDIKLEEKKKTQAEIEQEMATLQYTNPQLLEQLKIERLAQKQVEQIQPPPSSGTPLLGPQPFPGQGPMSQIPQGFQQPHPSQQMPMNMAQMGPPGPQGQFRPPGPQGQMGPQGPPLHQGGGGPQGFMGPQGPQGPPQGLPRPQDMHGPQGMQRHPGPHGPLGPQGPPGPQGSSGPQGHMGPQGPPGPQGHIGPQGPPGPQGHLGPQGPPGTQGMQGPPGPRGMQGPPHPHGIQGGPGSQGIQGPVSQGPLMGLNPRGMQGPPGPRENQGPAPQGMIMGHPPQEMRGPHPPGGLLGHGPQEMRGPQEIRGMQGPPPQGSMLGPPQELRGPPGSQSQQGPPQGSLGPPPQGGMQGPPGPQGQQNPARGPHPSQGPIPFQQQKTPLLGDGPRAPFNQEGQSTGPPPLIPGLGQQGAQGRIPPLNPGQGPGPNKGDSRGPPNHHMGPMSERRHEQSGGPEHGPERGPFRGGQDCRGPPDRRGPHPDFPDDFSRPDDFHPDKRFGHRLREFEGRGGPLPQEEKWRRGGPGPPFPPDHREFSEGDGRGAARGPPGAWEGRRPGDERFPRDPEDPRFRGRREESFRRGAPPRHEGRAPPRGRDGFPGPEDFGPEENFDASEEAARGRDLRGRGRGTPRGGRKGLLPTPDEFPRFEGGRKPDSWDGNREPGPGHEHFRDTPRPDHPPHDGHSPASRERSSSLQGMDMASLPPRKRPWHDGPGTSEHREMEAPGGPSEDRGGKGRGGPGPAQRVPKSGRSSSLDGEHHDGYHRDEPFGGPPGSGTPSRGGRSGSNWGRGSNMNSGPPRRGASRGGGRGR
The essentials: as §1

A further series deals with T5, RBM4 (UniProt Q9BWF3).
T5 sequence: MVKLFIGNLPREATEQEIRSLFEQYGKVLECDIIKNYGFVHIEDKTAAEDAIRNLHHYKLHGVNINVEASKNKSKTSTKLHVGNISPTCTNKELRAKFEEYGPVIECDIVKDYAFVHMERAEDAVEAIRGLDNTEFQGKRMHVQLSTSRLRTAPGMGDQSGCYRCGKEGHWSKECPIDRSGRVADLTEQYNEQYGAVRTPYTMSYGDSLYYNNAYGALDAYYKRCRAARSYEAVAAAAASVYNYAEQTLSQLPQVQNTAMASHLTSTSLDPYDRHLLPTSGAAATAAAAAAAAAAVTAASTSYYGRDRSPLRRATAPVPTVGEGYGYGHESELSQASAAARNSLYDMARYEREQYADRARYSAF
The essentials: as §1

The target in a further series is RPS16 (UniProt P62249). The essentials: as §1

Three sequences from the supplement of paper PMC6379048 can be followed below.

As a reminder, the Kd is the equilibrium constant for the complex coming apart. Low readings indicate tighter binding, high ones weaker binding.

HNRNPAB, sequence (Q99729 whole entry): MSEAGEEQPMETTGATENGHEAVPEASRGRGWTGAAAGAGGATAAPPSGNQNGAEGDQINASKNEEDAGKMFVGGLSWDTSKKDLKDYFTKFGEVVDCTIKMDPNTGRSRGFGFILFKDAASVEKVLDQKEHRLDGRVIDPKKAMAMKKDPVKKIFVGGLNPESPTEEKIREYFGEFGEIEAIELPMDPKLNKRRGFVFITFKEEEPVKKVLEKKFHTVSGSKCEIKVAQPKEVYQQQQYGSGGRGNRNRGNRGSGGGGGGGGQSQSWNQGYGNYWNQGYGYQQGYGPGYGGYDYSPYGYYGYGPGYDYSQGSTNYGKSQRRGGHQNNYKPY

On to AAUAAA, for which the Kd with RBM7 amounted to 156 nM; with HNRNPAB, 464 nM; in the series with ISY1, 198 nM; with LSM4, 70.5 nM; with WDR33 it was 5.98 nM; in the series with RBM4, 344 nM. The Kd with RPS16 was 349 nM.

For CUGUCCU, the figures for the dissociation constant Kd with RBM4 and with RPS16 were 131 nM and 77 nM, respectively.

Regarding UAUUUAU, the Kd stood at 81.2 nM with RBM7; 2300 nM in the series with HNRNPAB; 414 nM with ISY1; 241 nM with LSM4; 338 nM in the series with WDR33.
